According to patent US20140004122A1, “METHODS FOR TREATING OR PREVENTING CHOLESTEROL RELATED DISORDERS” (AMGEN INC., priority 2011, published 2014):

What was measured:
[1] = tested on: human patient exhibiting a Cholesterol Related Disorder; assay: Treatment of cholesterol related disorders (Example 16); assay type: in vivo; settings: therapeutically effective amount
From the text: At periodic times during the treatment, the patient is monitored to determine whether the symptoms of the disorder have subsided.

[2] = tested on: human patient exhibiting a risk of developing hypercholesterolemia; assay: Prevention of hypercholesterolemia (Example 19); assay type: in vivo; settings: regularly administered (e.g., one time weekly)
From the text: At periodic times during the treatment, the patient is monitored to determine whether serum cholesterol levels have decreased.

cynomolgus monkeys = assay: Serum lipids after single subcutaneous dose in cynomolgus monkeys (Example 36); assay type: in vivo, cynomolgus monkey; settings: 0.5 mg/kg single SC
From the text: Briefly, naive male cynomolgus monkeys were acclimated to their environment for at least 2 weeks prior to experimentation. Animals were randomized into treatment groups based on a pre-screen of their serum TC, HDL-C, LDL-C, and triglyceride levels, and their body weight. After 1 week, animals were fasted overnight, and bled from the peripheral vasculature (cephalic or saphenous vein), for measurement of baseline serum lipid levels at a time point designated T=0. […] Fasting blood samples were then collected from animals at designated time points over a 45 day period.
At specified time points, blood was collected from animals under overnight fasting conditions from the peripheral vasculature (cephalic or saphenous vein). Whole blood was allowed to coagulate for 30 minutes at room temperature. Following centrifugation at 3,000 rpm for 20 minutes, serum was collected. Direct serum cholesterol analysis was performed using the Cobas Integra 400 analyzer (Roche Diagnostics Inc, Indianapolis, Ind.). Apolipoprotein B serum levels were determined at specified time points (day 0, 3, 6, 15, 24 and 33) by Anilytics, MD, with the following methodology. A 17 μL aliquot of the sample (no preparation) was used for analysis with a Hitachi 717 Analyzer using a 6 points standard curve. If the initial value of the sample was higher than the standard curve linearity, then the sample was diluted and repeated with the result multiplied by the appropriate dilution factor. The reagents for the assay (APO-B Reagent Kit #86071, Antibody Set #86060, Control Set #86103) were obtained from DiaSorin (Stillwater, Minn.).
A statistical model that considers baseline as a covariate and treatment group as a fixed effect was fit to the log transformed response at each time point for LDL-C, HDL-C, TC, and triglycerides. Tukey's multiple comparison correction was applied to adjust the pair wise comparisons at each time point. The statistical significance was evaluated at alpha=0.05 using adjusted p-values.

[3] = tested on: patients from four studies described in Examples 22-25; assay: Aggregate data of the studies of Examples 22-25; assay type: in vivo, human
[4] = Osmolality of 21B12 formulations; assay type: physicochemical
From the text: In certain embodiments, the pharmaceutical formulation is isotonic with an osmolality ranging from between about 250 to about 350 miliosmol/kg, e.g., about 250 mOsm/kg, about 260 mOsm/kg, about 270 mOsm/kg, about 280 mOsm/kg, about 290 mOsm/kg, about 300 mOsm/kg, about 310 mOsm/kg, about 320 mOsm/kg, about 330 mOsm/kg, about 340 mOsm/kg, or about 350 mOsm/kg, and including all values in between. As used herein, “osmolality” is the measure of the ratio of solutes to volume fluid. In other words, it is the number of molecules and ions (or molecules) per kilogram of a solution. Osmolality may be measured on an analytical instrument called an osmometer, such as Advanced Instruments 2020 Multi-sample Osmometer, Norwood, Mass. The Advanced Instrumetns 2020 Multi-sample Osmometer measures osmolality by using the Freezing Point Depression method. The higher the osmolytes in a solution, the temperature in which it will freeze drops. Osmolality may also be measured using any other methods and in any other units known in the art such as linear extrapolation.

[5] = tested on: subjects with heterozygous familial hypercholesterolemia (HeFH); assay: 12 week study in heterozygous familial hypercholesterolemia (Example 22); assay type: in vivo, human; settings: preliminary
Description: This study is a double-blind, randomized, stratified, placebo-controlled clinical trial evaluating the safety, tolerability, and efficacy of monocloncal antibody 21B12 in subjects having a diagnosis of HeFH. A total enrollment of 150 subjects is planned. […] Randomization will be stratified by screening LDL-C level (<130 mg/dL [3.4 mmol/L] vs≧130 mg/dL) and ezetimibe use at baseline (yes vs no). Randomization should occur within 5-10 days of the screening LDL-C evaluation used to determine eligibility. Monoclonal antibody, 21B12, and placebo will be blinded. Study visits are at weeks 2, 4, 8, and 12. […] The end-of-study (EOS) visit and the last evaluation of lipids is at week 12.
Males and females, ≧18 to ≦75 years of age, and with a diagnosis of heterozygous familial hypercholesterolemia by the diagnostic criteria of the Simon Broome Register Group (SBRG), are eligible for this study. For enrollment, subjects must be on an approved statin, with stable dose(s) for all allowed (eg, ezetimibe, bile-acid sequestering resin, stanols, or regulatory-approved and marketed niacin (eg, Niaspan or Niacor)) lipid-regulating drugs for at least 4 weeks before LDL-C screening and, in the opinion of the investigator, not requiring uptitration. Fasting LDL-C must be ≧100 mg/dL (2.6 mmol/L) and fasting triglycerides ≦400 mg/dL (4.5 mmol/L) by central laboratory at screening.

[6] = 350 mg Q4W SC, end of the dosing interval

B1: 21B12: human anti-PCSK9 monoclonal antibody; light/heavy variable region SEQ ID NO 23/49 (antibody, listed as Homo sapiens, V domains shown)
VH: QVQLVQSGAEVKKPGASVKVSCKASGYTLTSYGISWVRQAPGQGLEWMGWVSFYNGNTNYAQKLQGRGTMTTDPSTSTAYMELRSLRSDDTAVYYCARGYGMDVWGQGTTVTVSS
VL: QSALTQPASVSGSPGQSITISCTGTSSDVGGYNSVSWYQQHPGKAPKLMIYEVSNRPSGVSNRFSGSKSGNTASLTISGLQAEDEADYYCNSYTSTSMVFGGGTKLTVL
[1]
  serum cholesterol levels vs patients that are not treated: reduced serum cholesterol levels
[2]
  serum cholesterol levels vs subjects that are not treated: lowered serum cholesterol levels
Cynomolgus monkeys
  LDL-C returned to levels similar to control animals by day: ≤ 6 days
  TC returned to levels similar to control animals by day: ≤ 4 days
  maximal lowering of LDL-C as compared to anti-KLH IgG2 control antibody-treated monkeys: 64%
  maximal lowering of TC as compared to control animals: 20%
  time of maximal LDL-C lowering after injection: 3 days
  time of maximal TC lowering after injection: 3 days
Cynomolgus monkeys; 45 day study
  HDL-C levels: lowered HDL-C at a single time point, 18 days after injection
  triglycerides levels: No statistically significant changes
Cynomolgus monkeys; alpha=0.05
  HDL-C or triglyceride levels vs anti-KLH IgG2 control antibody-treated monkeys: statistically significant change in HDL-C at a single time point (day 18 following injection)
Cynomolgus monkeys; days 3, 6, 15, 24 and 33
  serum ApoB levels vs anti-KLH IgG2 control antibody-treated monkeys: statistically significant lower ApoB levels at day 3 only
Cynomolgus monkeys; printed as negative change
  maximal lowering of LDL-C (vs anti-KLH IgG2 control antibody at the same time point): −64%
[3]; 140 mg Q2W
  reduction from baseline in LDL-C at week 12: ~60%
[3]; 420 mg Q4W
  reduction from baseline in LDL-C at week 12: ~56%
[3]; p values <0.001
  dose dependent reduction from baseline in ApoB: 36-53%
  dose dependent reduction from baseline in non-HDL-C: 36-53%
  dose dependent reduction from baseline in total cholesterol: 25-37%
[4]; 21B12 73 mg/mL, 10 mM Na acetate, pH 5.2 +3% proline
  Osmolality (mOsmol/kg): 253 mOsmol/kg
[4]; 21B12 76 mg/mL, 10 mM Na acetate, pH 5.2
  Osmolality (mOsmol/kg): 53 mOsmol/kg
[4]; 21B12 116 mg/mL, 10 mM sodium acetate, pH 4.8, 50 mM methionine + 2% benzyl alcohol
  Osmolality (mOsmol/kg): 329 mOsmol/kg
[4]; 21B12 116 mg/mL, 10 mM sodium acetate, pH 4.8, 150 mM arginine
  Osmolality (mOsmol/kg): 241 mOsmol/kg
[4]; 21B12 116 mg/mL, 10 mM sodium acetate, pH 4.8, 1.5% proline + 1% benzyl alcohol
  Osmolality (mOsmol/kg): 277 mOsmol/kg
[4]; 21B12 116 mg/mL, 10 mM sodium acetate, pH 4.8, 2% proline + 1% benzyl alcohol
  Osmolality (mOsmol/kg): 313 mOsmol/kg
[4]; 21B12 116 mg/mL, 10 mM sodium acetate, pH 4.8, no excipients
  Osmolality (mOsmol/kg): 72 mOsmol/kg
[4]; 21B12 117 mg/mL, 10 mM Na acetate, pH 4.5
  Osmolality (mOsmol/kg): 59 mOsmol/kg
[4]; 21B12 122 mg/mL, 10 mM Na acetate, pH 5.2 +3% proline
  Osmolality (mOsmol/kg): 274 mOsmol/kg
[4]; 21B12 130 mg/mL, 10 mM Na acetate, pH 5
  Osmolality (mOsmol/kg): 59 mOsmol/kg
[4]; 21B12 148 mg/mL, 10 mM Na acetate, pH 5.2 +3% proline
  Osmolality (mOsmol/kg): 301 mOsmol/kg
[4]; 21B12 […], 10 mM Na acetate, pH 4
  Osmolality (mOsmol/kg): 59 mOsmol/kg
[4]; 21B12 […], 10 mM Na acetate, pH 5.2 +150 mM NaCl
  Osmolality (mOsmol/kg): 346 mOsmol/kg
[4]; 21B12 […], 10 mM Na acetate, pH 5.2 +3% proline
  Osmolality (mOsmol/kg): 252 mOsmol/kg
[4]; 21B12 […], 10 mM Na acetate, pH 5.5
  Osmolality (mOsmol/kg): 64 mOsmol/kg
[4]; 21B12 […], 10 mM Na acetate, pH 5.5 +150 mM methionine and 3% benzyl alcohol
  Osmolality (mOsmol/kg): 520 mOsmol/kg
[5]; [6]
  LS mean percent increase from baseline in HDL-C: 15.39%
  LS mean percent reduction from baseline in LDL-C: 38.46%
  LS mean percent reduction from baseline in Lp(a): 21.69%
  LS mean percent reduction from baseline in VLDL-C: 17.16%
  LS mean percent reduction from baseline in non-HDL cholesterol: 36.16%
  LS mean percent reduction from baseline in total cholesterol: 24.82%
  LS mean percent reduction from baseline in triglycerides: 17.24%
[5]; 420 mg Q4W SC
  LS mean percent increase from baseline in HDL-C: 6.77%
  LS mean percent reduction from baseline in LDL-C: 45.68%
  LS mean percent reduction from baseline in Lp(a): 28.23%
  LS mean percent reduction from baseline in VLDL-C: 18.49%
  LS mean percent reduction from baseline in non-HDL cholesterol: 41.81%
  LS mean percent reduction from baseline in total cholesterol: 29.45%
  LS mean percent reduction from baseline in triglycerides: 4.56%
